Experimental data published in the supplement of paper PMC9732359.
± gives the uncertainty stated by the source.

Assay: protein stability index of a GFP-peptide fusion (yeast GPS) (PSI 1-4); higher = more stable; sorted into four equal gates, so the index is relative within each strain
Settings: doa10∆
Method in brief: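 Plasmids isolated from each sorting gate were PCR-amplified and Illumina-sequenced, and barcodes assigned the reads to strains. The gates, four of equal size, were set by GFP/Cherry fluorescence ratio on mid-log cultures in leucine-free medium. These cultures were yeast carrying a pooled library of tiled 17-residue yeast protein peptides fused downstream of GFP on a plasmid that also expresses Cherry. The protein stability index is the sum of every gate's read frequency times its gate number.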

Q: With NELERNRKIYQFTLYDR [SMC3] as the sequence, how does the protein stability index read?
A: 1.5 ± 0.23

Q: For NELPDIEALYDDDTFSD [RPN2], which protein stability index is on record?
A: 3.12 ± 0.1

Q: With NENDKIYLLFQSSGKLK [YDL116W/NUP84] as the sequence, how does the protein stability index read?
A: 2.43 ± 0.049

Q: With NENDLKTYNCLHEKYLT [SMC1] as the sequence, how does the protein stability index read?
A: 2.2 ± 0.072

Q: With NEPLSEIEIEGVMSLLQ [YAR002W/NUP60] as the sequence, how does the protein stability index read?
A: 3.31 ± 0.093

Q: Which protein stability index does the source give for NEPSQSLISTRNDSTVN [BRN1] here?
A: 3.16 ± 0.07

Q: Which protein stability index does the source give for NESKIKELNEKIQKLEE [RPN7] here?
A: 2.95 ± 0.16

Q: Which protein stability index does the source give for NESWKSSFEKFNDSQAI [SRP72] here?
A: 2.96 ± 0.055

Q: For NEVKEWAVTLDTSRPDL [DSN1], which protein stability index is on record?
A: 2.96 ± 0.11

Q: For NEYVAKVSAREKSAYKF [FAS2], which protein stability index is on record?
A: 3.23 ± 0.082

Q: For NFLVFQGDVEQIAAQSP [SMC1], which protein stability index is on record?
A: 2.49 ± 0.1

Q: With NFNDIPPSVTLQDWQRE [YDL088C/ASM4] as the sequence, how does the protein stability index read?
A: 2.51 ± 0.078

Q: With NFNLKPTKTLTTKERKK [PRP8] as the sequence, how does the protein stability index read?
A: 1.98 ± 0.049

Q: For NFNSSAPIADDNHSGDA [DSN1], which protein stability index is on record?
A: 1.92 ± 0.081

Q: Which protein stability index does the source give for NFNSSLHKRQQFSESTH [YJL039C/NUP192] here?
A: 3.12 ± 0.12

Q: For NFSNVTDLTNNSTDGAK [YIL149C/MLP2], which protein stability index is on record?
A: 2.82 ± 0.041

Q: Which protein stability index does the source give for NGKEVPLAKIYLEENKS [MED1] here?
A: 3.2 ± 0.1

Q: With NGKTRTLENTLKAAFVA [RPS2] as the sequence, how does the protein stability index read?
A: 2.85 ± 0.11

Q: For NGNITYSEEPREKVRKL [FAS2], which protein stability index is on record?
A: 2.99 ± 0.17

Q: For NGQRSNSIRAREVENSV [SMC1], which protein stability index is on record?
A: 3.31 ± 0.075

Q: Which protein stability index does the source give for NGQSLSPVRSDSADVPA [YMR153W/NUP53] here?
A: 3.06 ± 0.081

Q: With NGTTVWGTLQSVSPQMN [SMD1] as the sequence, how does the protein stability index read?
A: 3.57 ± 0.25

Q: With NGVPGQALDAVRMRLAQ [MED8] as the sequence, how does the protein stability index read?
A: 1.38 ± 0.067

Q: With NHITEFPSIPLPINGPI [RPC31] as the sequence, how does the protein stability index read?
A: 2.06 ± 0.05

Q: With NIDINNEDENIQLIKIL [YJL041W/NSP1] as the sequence, how does the protein stability index read?
A: 2.52 ± 0.055

Q: With NIDQEGSKQADRMAKYL [PGD1] as the sequence, how does the protein stability index read?
A: 3.4 ± 0.094

Q: Which protein stability index does the source give for NIEERKEKIQHELGINI [BRR2] here?
A: 3.02 ± 0.094

Q: Which protein stability index does the source give for NIIASPLSAGFNYGKLP [SIN4] here?
A: 2.62 ± 0.079

Q: For NILSNKPGQNNRQQKKR [RRP6], which protein stability index is on record?
A: 2.73 ± 0.18

Q: With NINSTDKSIDTSSLQLY [YML103C/NUP188] as the sequence, how does the protein stability index read?
A: 2.98 ± 0.099

Q: With NIPFWKHVGFELLSMGN [SRP72] as the sequence, how does the protein stability index read?
A: 1.82 ± 0.1

Q: With NIPQQQQMQPPNSSANN [GAL11] as the sequence, how does the protein stability index read?
A: 2.82 ± 0.062

Q: Which protein stability index does the source give for NIRNNIESQNLDLIPHS [SRB4] here?
A: 2.62 ± 0.052

Q: With NIVQVFKKAAPSPISHV [RPB2] as the sequence, how does the protein stability index read?
A: 2.2 ± 0.11

Q: With NKEKSNSPTSFFDGSAS [YOR098C/NUP1] as the sequence, how does the protein stability index read?
A: 3.1 ± 0.068

Q: Which protein stability index does the source give for NKFHKSIREDILECDLL [SIR2] here?
A: 2.73 ± 0.058

Q: Which protein stability index does the source give for NKFMSIFLKRKDFTNKN [SRB8] here?
A: 2.38 ± 0.067

Q: With NKIMTNQINSFWSLHSS [NUT1] as the sequence, how does the protein stability index read?
A: 1.91 ± 0.2

Q: For NKKGRGHVKPVRCVNCS [RPS26A], which protein stability index is on record?
A: 3.18 ± 0.065

Q: Which protein stability index does the source give for NKQYELFMKSLIENCKK [SWI1] here?
A: 2.58 ± 0.053

Q: For NKQYHQANSNLTLLERK [NUT1], which protein stability index is on record?
A: 2.34 ± 0.054

Q: For NKRWKVDIGGKQHAVLM [RRP4], which protein stability index is on record?
A: 2.87 ± 0.064

Q: For NKTSNNNNVTAVPAATP [SWI1], which protein stability index is on record?
A: 2.84 ± 0.044

Q: Which protein stability index does the source give for NLAIVELVRLLIIDEIH [BRR2] here?
A: 2.58 ± 0.069

Q: For NLAPKLRNVFLGKCSRI [GRR1], which protein stability index is on record?
A: 2.7 ± 0.048

Q: Which protein stability index does the source give for NLDSSITQDGKFAYKID [YMR129W/POM152] here?
A: 2.38 ± 0.065

Q: Which protein stability index does the source give for NLEPLIAKLVAVLNVSP [NUT1] here?
A: 1.47 ± 0.064

Q: Which protein stability index does the source give for NLERLRSDLQSKIQEIE [YIL149C/MLP2] here?
A: 3.08 ± 0.077

Q: Which protein stability index does the source give for NLFSSTGFKGLLIELQA [SRB2] here?
A: 2.6 ± 0.12

Q: With NLGEYESAVKYALAAKD [RPN2] as the sequence, how does the protein stability index read?
A: 2.42 ± 0.15

Same assay, conditions: pdr5∆

Q: Which protein stability index does the source give for MNHDPFSWGRPADSTYG [PRE4] here?
A: 3.28 ± 0.087

Q: With MNMFGGGMGGGMGGGMP [SRP54] as the sequence, how does the protein stability index read?
A: 2.43 ± 0.21
